We go through four sequences from US10500249B2, “Compositions and methods for preventing or treating diseases, conditions, or processes characterized by aberrant fibroblast proliferation and extracellular matrix deposition” (MOERAE MATRIX, INC., priority 2014, dated 2019).

Holding throughout (test): Kinase Profiling Assay
What all share (assay type): biochemical
What all share (settings): 100 μM

The target of one experiment is ALK (h) (Homo sapiens, UniProt Q9UM73). The essentials:
(§1)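 Kinase inhibition by MK2 inhibitory peptides was profiled radiometrically, with substrate phosphorylation from labeled ATP read by scintillation after capture on a charged filter. Values are relative to 100% activity and measured in duplicate.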

For another experiment, the target named is AMPKα2 (h) (Homo sapiens, UniProt P54646). The method in brief: as §1
The target of a further experiment is T1, CSK (h) (Homo sapiens, UniProt P41240).
T1 construct: purchased Millipore
The method in brief:
as §1

The target in another experiment is T2, IR (h) (Homo sapiens, UniProt P06213).
T2 construct: purchased Millipore
The essentials:
as §1

Another experiment has as its target T3, IR (h), activated (Homo sapiens, UniProt P06213).
T3 construct: purchased Millipore
The method in brief:
as §1

A further experiment has as its target T4, Itk (h) (Homo sapiens, UniProt Q08881).
T4 construct: purchased Millipore
T4 sequence (Q08881 1-620): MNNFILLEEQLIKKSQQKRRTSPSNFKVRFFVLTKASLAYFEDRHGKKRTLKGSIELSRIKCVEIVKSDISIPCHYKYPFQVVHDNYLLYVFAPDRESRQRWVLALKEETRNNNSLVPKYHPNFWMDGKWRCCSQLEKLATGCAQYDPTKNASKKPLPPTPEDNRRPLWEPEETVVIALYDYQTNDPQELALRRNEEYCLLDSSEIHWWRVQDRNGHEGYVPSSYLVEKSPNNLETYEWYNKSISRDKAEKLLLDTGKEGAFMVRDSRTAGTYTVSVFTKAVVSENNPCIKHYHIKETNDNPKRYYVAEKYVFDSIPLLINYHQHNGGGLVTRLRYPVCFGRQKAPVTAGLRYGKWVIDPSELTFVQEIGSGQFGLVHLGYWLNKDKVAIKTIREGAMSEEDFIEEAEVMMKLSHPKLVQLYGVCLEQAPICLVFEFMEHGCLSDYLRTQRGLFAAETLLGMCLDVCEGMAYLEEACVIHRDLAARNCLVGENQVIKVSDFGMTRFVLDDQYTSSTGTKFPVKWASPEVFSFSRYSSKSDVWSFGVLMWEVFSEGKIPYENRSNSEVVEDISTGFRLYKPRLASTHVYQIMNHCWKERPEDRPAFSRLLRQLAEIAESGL
The essentials:
as §1

A further experiment deals with JNK2α2 (h) (Homo sapiens, UniProt P45984). The essentials: as §1
The next experiment deals with MAPK2 (h) (Homo sapiens, UniProt P28482). The method in brief: as §1
In the next experiment the target is MARK1 (h) (Homo sapiens, UniProt Q9P0L2). The essentials: as §1
For another experiment, the target named is T5, NEK2 (h) (Homo sapiens, UniProt P51955).
T5 construct: purchased Millipore
T5 sequence (P51955 1-445): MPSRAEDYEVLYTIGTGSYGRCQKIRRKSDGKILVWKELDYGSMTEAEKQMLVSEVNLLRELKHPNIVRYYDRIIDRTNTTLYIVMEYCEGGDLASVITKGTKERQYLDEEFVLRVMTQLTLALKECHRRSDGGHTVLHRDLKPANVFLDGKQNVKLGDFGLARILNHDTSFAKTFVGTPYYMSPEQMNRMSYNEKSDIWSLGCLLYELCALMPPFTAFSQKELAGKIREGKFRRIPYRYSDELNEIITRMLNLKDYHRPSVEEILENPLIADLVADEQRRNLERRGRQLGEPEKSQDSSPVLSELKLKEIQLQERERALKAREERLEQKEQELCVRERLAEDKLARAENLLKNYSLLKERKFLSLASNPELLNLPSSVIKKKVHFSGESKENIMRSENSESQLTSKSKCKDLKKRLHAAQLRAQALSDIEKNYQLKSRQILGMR
The essentials:
as §1

For the next experiment, the target named is T6, PhKγ2 (h) (Homo sapiens, UniProt P15735).
T6 construct: purchased Millipore
T6 sequence (P15735 1-406): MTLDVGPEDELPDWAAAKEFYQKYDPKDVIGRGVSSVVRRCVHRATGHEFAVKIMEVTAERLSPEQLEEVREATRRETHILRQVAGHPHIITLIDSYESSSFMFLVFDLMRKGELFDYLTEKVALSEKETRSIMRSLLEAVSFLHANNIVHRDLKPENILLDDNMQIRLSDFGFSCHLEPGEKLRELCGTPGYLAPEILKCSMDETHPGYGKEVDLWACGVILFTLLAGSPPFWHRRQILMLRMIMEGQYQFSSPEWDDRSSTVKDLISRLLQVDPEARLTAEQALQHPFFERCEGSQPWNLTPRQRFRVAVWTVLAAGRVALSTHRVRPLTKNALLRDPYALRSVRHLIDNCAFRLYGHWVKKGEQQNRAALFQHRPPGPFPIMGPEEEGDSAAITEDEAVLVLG
The essentials: as §1

The target in the next experiment is Plk3 (h) (Homo sapiens, UniProt Q9H4B4). The essentials:
as §1

In a further experiment the target is Syk (h) (Homo sapiens, UniProt P43405). The method in brief: as §1
Another experiment concerns the target Tie2 (h) (Homo sapiens, UniProt Q02763). The essentials: as §1
The target in another experiment is T7, cKit(D816V) (h) (Homo sapiens, UniProt P10721, D816V).
T7 construct: purchased Millipore
The method in brief:
as §1

Sequence of Tie2 (h) (Q02763 23-1124): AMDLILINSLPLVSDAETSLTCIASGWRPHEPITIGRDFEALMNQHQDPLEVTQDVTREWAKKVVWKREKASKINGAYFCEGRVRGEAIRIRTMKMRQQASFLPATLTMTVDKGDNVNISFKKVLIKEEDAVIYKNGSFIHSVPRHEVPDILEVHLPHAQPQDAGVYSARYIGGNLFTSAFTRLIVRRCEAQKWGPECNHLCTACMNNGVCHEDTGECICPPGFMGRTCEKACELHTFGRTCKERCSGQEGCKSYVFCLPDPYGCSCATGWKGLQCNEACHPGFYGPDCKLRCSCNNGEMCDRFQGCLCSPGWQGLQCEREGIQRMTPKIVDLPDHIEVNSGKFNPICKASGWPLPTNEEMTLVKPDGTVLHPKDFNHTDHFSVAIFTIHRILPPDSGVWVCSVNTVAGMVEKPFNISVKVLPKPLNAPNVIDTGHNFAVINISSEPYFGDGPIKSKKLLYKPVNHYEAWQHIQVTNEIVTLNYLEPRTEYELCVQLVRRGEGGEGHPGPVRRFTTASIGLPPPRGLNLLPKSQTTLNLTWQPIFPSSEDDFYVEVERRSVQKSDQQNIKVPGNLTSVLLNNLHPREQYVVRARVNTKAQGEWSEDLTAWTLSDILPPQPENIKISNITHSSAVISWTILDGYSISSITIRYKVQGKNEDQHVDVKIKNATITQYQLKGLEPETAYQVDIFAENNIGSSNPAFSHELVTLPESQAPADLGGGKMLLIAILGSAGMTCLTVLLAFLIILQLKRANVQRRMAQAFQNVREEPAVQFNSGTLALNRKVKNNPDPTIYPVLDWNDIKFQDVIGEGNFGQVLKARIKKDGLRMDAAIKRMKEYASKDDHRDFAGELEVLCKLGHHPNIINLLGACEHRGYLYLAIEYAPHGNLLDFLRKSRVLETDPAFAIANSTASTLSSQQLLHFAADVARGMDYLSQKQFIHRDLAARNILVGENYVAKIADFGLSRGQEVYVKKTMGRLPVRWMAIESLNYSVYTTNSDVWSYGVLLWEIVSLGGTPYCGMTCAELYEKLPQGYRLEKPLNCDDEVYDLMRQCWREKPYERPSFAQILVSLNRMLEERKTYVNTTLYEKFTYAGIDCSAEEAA
Sequence of ALK (h) (Q9UM73 19-1620): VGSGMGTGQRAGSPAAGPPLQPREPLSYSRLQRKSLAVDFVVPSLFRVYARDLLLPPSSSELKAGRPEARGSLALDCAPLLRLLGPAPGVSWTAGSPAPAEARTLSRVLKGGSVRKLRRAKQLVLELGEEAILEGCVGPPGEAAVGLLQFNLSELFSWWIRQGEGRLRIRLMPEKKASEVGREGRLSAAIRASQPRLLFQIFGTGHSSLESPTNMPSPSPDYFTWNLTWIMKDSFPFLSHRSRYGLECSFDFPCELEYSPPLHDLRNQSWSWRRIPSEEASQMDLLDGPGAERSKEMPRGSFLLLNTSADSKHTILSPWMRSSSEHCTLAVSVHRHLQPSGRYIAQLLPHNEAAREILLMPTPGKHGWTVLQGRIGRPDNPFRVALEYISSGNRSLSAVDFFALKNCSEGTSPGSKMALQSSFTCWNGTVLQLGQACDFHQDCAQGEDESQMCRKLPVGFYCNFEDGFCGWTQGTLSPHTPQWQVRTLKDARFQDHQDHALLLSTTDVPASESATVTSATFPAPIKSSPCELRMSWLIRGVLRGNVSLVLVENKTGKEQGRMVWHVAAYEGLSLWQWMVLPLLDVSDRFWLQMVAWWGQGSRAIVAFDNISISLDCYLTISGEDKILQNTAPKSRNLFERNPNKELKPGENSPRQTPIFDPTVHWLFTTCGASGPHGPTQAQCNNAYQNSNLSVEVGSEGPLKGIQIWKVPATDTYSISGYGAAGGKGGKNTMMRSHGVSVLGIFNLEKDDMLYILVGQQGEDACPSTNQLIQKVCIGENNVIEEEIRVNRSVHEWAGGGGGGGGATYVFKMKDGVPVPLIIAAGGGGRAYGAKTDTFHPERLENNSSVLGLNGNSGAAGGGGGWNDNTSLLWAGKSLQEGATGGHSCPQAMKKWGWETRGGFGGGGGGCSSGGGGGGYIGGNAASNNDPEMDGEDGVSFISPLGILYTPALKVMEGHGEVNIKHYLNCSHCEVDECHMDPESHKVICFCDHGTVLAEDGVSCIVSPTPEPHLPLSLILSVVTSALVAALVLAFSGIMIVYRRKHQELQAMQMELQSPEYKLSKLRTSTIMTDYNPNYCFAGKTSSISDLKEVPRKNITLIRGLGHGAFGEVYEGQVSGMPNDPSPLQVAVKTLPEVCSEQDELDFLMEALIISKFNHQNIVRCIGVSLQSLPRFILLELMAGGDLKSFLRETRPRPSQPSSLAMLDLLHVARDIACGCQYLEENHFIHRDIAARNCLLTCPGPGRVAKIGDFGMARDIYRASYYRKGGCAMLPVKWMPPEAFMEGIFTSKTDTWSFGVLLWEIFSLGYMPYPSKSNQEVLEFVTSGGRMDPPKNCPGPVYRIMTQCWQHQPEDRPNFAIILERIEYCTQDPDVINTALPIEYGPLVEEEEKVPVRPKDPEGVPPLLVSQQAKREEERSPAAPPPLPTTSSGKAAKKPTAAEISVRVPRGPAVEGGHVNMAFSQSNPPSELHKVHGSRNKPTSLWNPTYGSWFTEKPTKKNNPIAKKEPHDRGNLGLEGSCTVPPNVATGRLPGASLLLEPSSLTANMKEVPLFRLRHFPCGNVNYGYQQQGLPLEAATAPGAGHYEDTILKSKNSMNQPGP
Sequence of MAPK2 (h) (P28482 whole entry): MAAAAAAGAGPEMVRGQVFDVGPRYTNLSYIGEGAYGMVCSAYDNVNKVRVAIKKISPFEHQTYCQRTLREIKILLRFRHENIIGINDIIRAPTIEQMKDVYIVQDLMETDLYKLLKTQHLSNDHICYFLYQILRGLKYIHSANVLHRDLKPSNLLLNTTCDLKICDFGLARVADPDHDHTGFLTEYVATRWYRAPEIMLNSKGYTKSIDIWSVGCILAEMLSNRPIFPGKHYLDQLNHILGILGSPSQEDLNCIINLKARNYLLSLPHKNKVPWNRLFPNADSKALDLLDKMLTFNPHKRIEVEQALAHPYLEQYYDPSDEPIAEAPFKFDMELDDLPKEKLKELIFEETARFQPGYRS
Sequence of Plk3 (h) (Q9H4B4 whole entry): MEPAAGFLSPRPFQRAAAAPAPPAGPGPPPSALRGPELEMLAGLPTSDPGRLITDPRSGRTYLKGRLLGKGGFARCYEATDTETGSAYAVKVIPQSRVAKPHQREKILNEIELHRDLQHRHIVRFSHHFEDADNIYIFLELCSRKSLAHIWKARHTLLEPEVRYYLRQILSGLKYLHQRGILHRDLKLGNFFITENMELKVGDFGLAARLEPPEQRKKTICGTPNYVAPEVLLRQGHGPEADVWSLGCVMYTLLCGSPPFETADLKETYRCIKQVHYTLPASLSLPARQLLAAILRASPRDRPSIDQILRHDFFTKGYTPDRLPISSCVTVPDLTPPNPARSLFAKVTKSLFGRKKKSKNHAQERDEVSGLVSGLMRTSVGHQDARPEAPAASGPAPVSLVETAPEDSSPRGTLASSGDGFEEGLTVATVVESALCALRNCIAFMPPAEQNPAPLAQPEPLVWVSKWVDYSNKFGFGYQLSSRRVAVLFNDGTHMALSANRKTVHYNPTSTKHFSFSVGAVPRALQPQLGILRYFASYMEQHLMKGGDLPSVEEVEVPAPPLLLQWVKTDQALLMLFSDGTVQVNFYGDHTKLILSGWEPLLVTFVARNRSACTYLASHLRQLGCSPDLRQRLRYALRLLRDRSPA
Sequence of MARK1 (h) (Q9P0L2 whole entry): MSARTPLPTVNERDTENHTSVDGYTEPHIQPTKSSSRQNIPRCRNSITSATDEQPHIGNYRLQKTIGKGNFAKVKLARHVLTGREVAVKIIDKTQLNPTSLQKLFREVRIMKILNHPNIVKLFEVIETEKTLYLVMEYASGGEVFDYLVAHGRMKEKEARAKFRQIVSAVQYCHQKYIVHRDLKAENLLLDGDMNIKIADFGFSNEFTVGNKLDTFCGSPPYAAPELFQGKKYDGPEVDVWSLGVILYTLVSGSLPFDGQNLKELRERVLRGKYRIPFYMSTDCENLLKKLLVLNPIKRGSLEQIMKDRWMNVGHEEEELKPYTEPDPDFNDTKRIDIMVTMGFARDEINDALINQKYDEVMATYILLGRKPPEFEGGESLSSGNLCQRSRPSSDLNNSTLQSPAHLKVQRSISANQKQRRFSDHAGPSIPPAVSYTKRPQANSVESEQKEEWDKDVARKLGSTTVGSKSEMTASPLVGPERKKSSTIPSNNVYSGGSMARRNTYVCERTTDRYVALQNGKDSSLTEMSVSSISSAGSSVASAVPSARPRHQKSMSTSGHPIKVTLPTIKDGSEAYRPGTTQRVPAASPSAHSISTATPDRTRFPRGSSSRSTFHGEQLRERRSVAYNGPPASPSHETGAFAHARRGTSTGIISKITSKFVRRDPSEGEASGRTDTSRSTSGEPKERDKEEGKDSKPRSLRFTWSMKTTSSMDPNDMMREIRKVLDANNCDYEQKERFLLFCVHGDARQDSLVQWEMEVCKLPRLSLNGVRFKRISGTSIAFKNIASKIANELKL
T1 sequence (P41240 whole entry): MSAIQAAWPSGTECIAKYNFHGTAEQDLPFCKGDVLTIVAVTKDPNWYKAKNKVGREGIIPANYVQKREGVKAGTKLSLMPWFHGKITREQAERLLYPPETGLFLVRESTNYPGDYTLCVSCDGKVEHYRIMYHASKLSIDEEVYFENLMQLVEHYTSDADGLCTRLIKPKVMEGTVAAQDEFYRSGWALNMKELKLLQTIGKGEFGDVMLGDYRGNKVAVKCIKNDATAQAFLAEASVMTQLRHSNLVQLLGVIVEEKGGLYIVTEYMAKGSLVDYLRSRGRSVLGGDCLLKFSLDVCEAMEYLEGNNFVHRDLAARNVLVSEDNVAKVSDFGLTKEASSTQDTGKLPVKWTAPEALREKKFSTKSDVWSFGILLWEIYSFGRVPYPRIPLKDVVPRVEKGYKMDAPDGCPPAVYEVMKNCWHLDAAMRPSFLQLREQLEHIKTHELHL

As to FAKLAARLYRKALARQLGVAA [MMI-0300], the “% activity” value with ALK (h) was 19%; with AMPKα2 (h), 54%; with CSK (h), 49%; with IR (h) it was 96%; in the experiment with IR (h), activated, 79%; with Itk (h) it was 77%. Also, the “% activity” value in the experiment with JNK2α2 (h) turned out to be 98%; with MAPK2 (h) it was 98%; in the experiment with MARK1 (h), 132%; with NEK2 (h), 78%; with PhKγ2 (h) it was 46%; with Plk3 (h), 127%. The “% activity” value with Syk (h) is given as 24%; in the experiment with Tie2 (h), 26%; in the experiment with cKit(D816V) (h), 60%.

KAFAKLAARLYRKALARQLGVAA [MMI-0400]: the “% activity” value with ALK (h) is recorded as 16%; in the experiment with AMPKα2 (h), 58%; in the experiment with CSK (h) it was 16%; in the experiment with IR (h), 85%; with IR (h), activated, 59%; with Itk (h), 63%. Besides, the “% activity” value with JNK2α2 (h) came to 96%; with MAPK2 (h), 93%; with MARK1 (h), 120%; with NEK2 (h) it was 61%; with PhKγ2 (h), 38%; with Plk3 (h), 129%. In addition, the results for the “% activity” value with Syk (h), with Tie2 (h) and with cKit(D816V) (h) were 9%, 21% and 35%, respectively.

In the case of “YARAAARQARAKALNRQLGVA (Mammalian) [MMI-0200]”, the “% activity” value was 95% with ALK (h); 88% in the experiment with AMPKα2 (h); 33% in the experiment with CSK (h); 90% with IR (h); 98% with Itk (h); 97% with NEK2 (h). Besides, the “% activity” value with PhKγ2 (h) turned out to be 86%; in the experiment with Syk (h), 36%; in the experiment with Tie2 (h) it was 53%; with cKit(D816V) (h), 118%.

In the case of “HRRIKAWLKKIKALARQLGVAA (Mammalian) [MMI-0500]”, the “% activity” value with ALK (h) stood at 12%; in the experiment with AMPKα2 (h), 9%; in the experiment with CSK (h), 2%; with IR (h), 95%; in the experiment with IR (h), activated, 90%; with Itk (h) it was 7%. Also, the “% activity” value in the experiment with JNK2α2 (h) was 81%; in the experiment with MAPK2 (h), 60%; in the experiment with MARK1 (h) it was 110%; with NEK2 (h), 0%; with PhKγ2 (h), 16%; with Plk3 (h), 122%. The “% activity” value with Syk (h) is recorded as 5%; with Tie2 (h), 22%; with cKit(D816V) (h), 30%.
